From publication PMC4414246

Assays:
Assay in all cases: fluorescence polarization
U1A E19S = U1A E19S (UniProt P09012 10-89, E19S)
U1A M51A:F56A = U1A M51A:F56A (UniProt P09012 10-89, M51A;F56A)
U1A M51A:Y13Q = U1A M51A:Y13Q (UniProt P09012 10-89, Y13Q;M51A)
U1A E19A = U1A E19A (UniProt P09012 10-89, E19A)
U1A S46A = U1A S46A (UniProt P09012 10-89, S46A)
dK50dM51 L49A = dK50dM51 L49A (UniProt P09012 10-89, L49A;del50-51)
dK50dM51 N16A = dK50dM51 N16A (UniProt P09012 10-89, N16A;del50-51)
U1A L49N = U1A L49N (UniProt P09012 10-89, L49N)
U1A L49A:E19A = U1A L49A:E19A (UniProt P09012 10-89, E19A;L49A)
dK50dM51 E19K = dK50dM51 E19K (UniProt P09012 10-89, E19K;del50-51)
U1A N15A = U1A N15A (UniProt P09012 10-89, N15A)
U1A L49S = U1A L49S (UniProt P09012 10-89, L49S)
U1A E19S:Y13Q = U1A E19S:Y13Q (UniProt P09012 10-89, Y13Q;E19S)
dK50dM51 E19A = dK50dM51 E19A (UniProt P09012 10-89, E19A;del50-51)
U1A L49A:F56A = U1A L49A:F56A (UniProt P09012 10-89, L49A;F56A)
U1A E19S:F56A = U1A E19S:F56A (UniProt P09012 10-89, E19S;F56A)
U1A E19A:N15V = U1A E19A:N15V (UniProt P09012 10-89, N15V;E19A)
dK50dM51 E19F = dK50dM51 E19F (UniProt P09012 10-89, E19F;del50-51)
U1A L49A:N15V = U1A L49A:N15V (UniProt P09012 10-89, N15V;L49A)
dK50dM51 S48A = dK50dM51 S48A (UniProt P09012 10-89, S48A;del50-51)
U1A S48A = U1A S48A (UniProt P09012 10-89, S48A)
U1A E19F:F56A = U1A E19F:F56A (UniProt P09012 10-89, E19F;F56A)
U1A M51N = U1A M51N (UniProt P09012 10-89, M51N)
dK50dM51 N15A = dK50dM51 N15A (UniProt P09012 10-89, N15A;del50-51)

Work on GGCAGAUCUGAGCCUGGGAGCUCUCUGCC (structured_RNA) [TAR RNA] yielded a Kd (U1A E19S) of 4.1 ± 0.3 µM, a Kd (U1A M51A:F56A) of 177 ± 98.2 µM and a Kd (U1A M51A:Y13Q) of 210 ± 84.3 µM. It also gave a Kd (U1A E19A) of 5.9 ± 0.8 µM, a Kd (U1A S46A) of 15.1 ± 2.6 µM and a Kd (dK50dM51 L49A) of 91.6 ± 39.7 µM. It also gave a Kd (dK50dM51 N16A) of 62.1 ± 5.4 µM, a Kd (U1A L49N) of 14.4 ± 2.1 µM and a Kd (U1A L49A:E19A) of 6.9 ± 0.8 µM. The Kd (dK50dM51 E19K) was 6.3 ± 1 µM, the Kd (U1A N15A) was 11.7 ± 0.9 µM and the Kd (U1A L49S) was 12.4 ± 2.3 µM. The Kd (U1A E19S:Y13Q) was 10.3 ± 2.8 µM, the Kd (dK50dM51 E19A) was 10.2 ± 2.2 µM and the Kd (U1A L49A:F56A) was 123 ± 38.7 µM. The Kd (U1A E19S:F56A) was 19.2 ± 1.4 µM, the Kd (U1A E19A:N15V) was 14.2 ± 1.4 µM and the Kd (dK50dM51 E19F) was 12.6 ± 1.8 µM. For the same binder, the Kd (U1A L49A:N15V) was 39.2 ± 9.6 µM, the Kd (dK50dM51 S48A) was 33.9 ± 15.9 µM and the Kd (U1A S48A) was 14.2 ± 1.3 µM. For the same binder, the Kd (U1A E19F:F56A) was 20.9 ± 3.3 µM, the Kd (U1A M51N) was 13.8 ± 1.6 µM and the Kd (dK50dM51 N15A) was 91.1 ± 8.8 µM.
